Source: the supplement of paper PMC11246515
± gives the standard deviation of the averaged measurements.

Assay: total protein half-life in vivo (active degradation + dilution); higher = more stable protein
[1] = E. coli NCM3722 delta-clpP delta-lon delta-hslV, growth: N-lim chemostat, doubling time 6 h
[2] = E. coli NCM3722 delta-clpP, growth: N-lim chemostat, doubling time 6 h
[3] = E. coli NCM3722 delta-hslV, growth: N-lim chemostat, doubling time 6 h
[4] = E. coli NCM3722 delta-lon, growth: N-lim chemostat, doubling time 6 h
[5] = E. coli NCM3722 delta-smpB, growth: N-lim chemostat, doubling time 6 h
[6] = wild type E. coli NCM3722, growth: C-lim chemostat, doubling time 3 h
[7] = wild type E. coli NCM3722, growth: C-lim chemostat, doubling time 6 h
[8] = wild type E. coli NCM3722, growth: C-lim chemostat, doubling time 12 h
[9] = wild type E. coli NCM3722, growth: N-lim chemostat, doubling time 6 h
[10] = wild type E. coli NCM3722, growth: N-lim chemostat, doubling time 12 h
[11] = wild type E. coli NCM3722, growth: P-lim chemostat, doubling time 6 h
[12] = wild type E. coli NCM3722, growth: P-lim chemostat, doubling time 12 h

Row | Sequence | total protein half-life in vivo [1] [h] | total protein half-life in vivo [2] [h] | total protein half-life in vivo [3] [h] | total protein half-life in vivo [4] [h] | total protein half-life in vivo [5] [h] | total protein half-life in vivo [6] [h] | total protein half-life in vivo [7] [h] | total protein half-life in vivo [8] [h] | total protein half-life in vivo [9] [h] | total protein half-life in vivo [10] [h] | total protein half-life in vivo [11] [h] | total protein half-life in vivo [12] [h]
1 | MQENSPLLQLQNVGYLAGDAKILNNINFSLRAGEFKLITGPSGCGKSTLLKIVASLISPTSGTLLFEGEDVSTLKPEIYRQQVSYCAQTPTLFGDTVYDNLIFPWQIRNRQPDPAIFLDFLERFALPDSILTKNIAELSGGEKQRISLIRNLQFMPKVLLLDEITSALDESNKHNVNEMIHRYVREQNIAVLWVTHDKDEINHADKVITLQPHAGEMQEARYELA | 5.05 ± 0.21 | 5 ± 0.8 | 5.16 ± 0.41 | 4.59 ± 0.41 | 6.21 ± 1.8 | 2.7 ± 0.38 | 6.58 ± 0.68 | 9.76 | 5.2 ± 0.14 | 9.23 ± 0.8 | 5.43 ± 0.2 | 11.7 ± 1.6
2 | MQENYKILVVDDDMRLRALLERYLTEQGFQVRSVANAEQMDRLLTRESFHLMVLDLMLPGEDGLSICRRLRSQSNPMPIIMVTAKGEEVDRIVGLEIGADDYIPKPFNPRELLARIRAVLRRQANELPGAPSQEEAVIAFGKFKLNLGTREMFREDEPMPLTSGEFAVLKALVSHPREPLSRDKLMNLARGREYSAMERSIDVQISRLRRMVEEDPAHPRYIQTVWGLGYVFVPDGSKA [P0AA16] | 5.29 ± 0.46 | 6.03 ± 1.6 | 5.25 ± 0.31 | 6.35 ± 0.91 | 4.73 ± 0.46 | 3.32 ± 0.41 | 5.849 ± 0.017 | 10.3 ± 0.2 | 4.67 ± 0.22 | 8.55 ± 0.08 | 5.66 ± 0.17 | 11 ± 0.14
3 | MQFNIPTLLTLFRVILIPFFVLVFYLPVTWSPFAAALIFCVAAVTDWFDGFLARRWNQSTRFGAFLDPVADKVLVAIAMVLVTEHYHSWWVTLPAATMIAREIIISALREWMAELGKRSSVAVSWIGKVKTTAQMVALAWLLWRPNIWVEYAGIALFFVAAVLTLWSMLQYLSAARADLLDQ [P0ABF8] | 7.82 | 6.476 ± 0.013 | – | 5.76 | 5.9 | 3.1 ± 0.097 | 5.64 ± 0.51 | 15.4 | – | 9.62 ± 4.9 | 6.75 ± 1.5 | 12.1 ± 1.3
4 | MQIIFGEKCVSLLRLFFAAVLMLWCAQTAAYSGQCHTTQGNPYIGVNFGVKTLEEEANTAGVVKDKFYQWNESNDYYVSCDCDKDNVRSGRWAFAADSPLVYLGDNWYKINDYLAAKVLLQVKGSSPTAVPFENVGTGGDTRWHICDPGGQRLGGQGASGNSGSFSLKILQPFVGSVVIPPMALARLYECYNIPAGDSCTTTGTPVLVYYLSGTINSLGSCSVNAGETIEVDLGDVFAANFRVVGHKPLGARTAELAIPVRCNTGNAGLVNVNLSLTATTDPSYPQAIKTSRPGVGVVVTDSQNNIISPAGGTLPLSIPDDADSIARMNVYPVSTTGVPPETGRFEATATVRINFD | 5.52 ± 2.1 | 4.19 | 5.902 ± 0.037 | 6.21 ± 1.1 | 5.24 ± 0.2 | – | 5.54 ± 0.6 | 9.76 | 7.57 | 11.6 ± 0.54 | 6 | 12 ± 1.1
5 | MQIVMFDRQSIFIHGMKISLQQRIPGVSIQGASQADELWQKLESYPEALVMLDGDQDGEFCYWLLQKTVVQFPEVKVLITATDCNKRWLQEVIHFNVLAIVPRDSTVETFALAVNSAAMGMMFLPGDWRTTPEKDIKDLKSLSARQREILTMLAAGESNKEIGRALNISTGTVKAHLESLYRRLEVKNRTQAAMMLNISS | 4.46 | – | – | – | – | – | – | – | – | – | – | –
6 | MQKAQRIIKTYRRNRMIVCTICALVTLASTLSVRFISQRNLNQQRVVQFANHAVEELDKVLLPLQAGSEVLLPLIGLPCSVAHLPLRKQAAKLQTVRSIGLVQDGTLYCSSIFGYRNVPVVDILAELPAPQPLLRLTIDRALIKGSPVLIQWTPAAGSSNAGVMEMINIDLLTAMLLEPQLPQISSASLTVDKRHLLYGNGLVDSLPQPEDNENYQVSSQRFPFTINVNGPGATALAWHYLPTQLPLAVLLSLLVGYIAWLATAYRMSFSREINLGLAQHEFELFCQPLLNARSQQCIGVEILLRWNNPRQGWISPDVFIPIAEEHHLIVPLTRYVMAETIRQRHVFPMSSQFHVGINVAPSHFRRGVLIKDLNQYWFSAHPIQQLILEITERDALLDVDYRIARELHRKNVKLAIDDFGTGNSSFSWLETLRPDVLKIDKSFTAAIGSDAVNSTVTDIIIALGQRLNIELVAEGVETQEQAKYLRRHGVHILQGYLYAQPMPLRDFPKWLAGSQPPPARHNGHITPIMPLR | 4.94 | 2.57 | – | – | – | – | – | – | – | – | – | –
7 | MQKDALNNVHITDEQVLMTPEQLKAAFPLSLQQEAQIADSRKSISDIIAGRDPRLLVVCGPCSIHDPETALEYARRFKALAAEVSDSLYLVMRVYFEKPRTTVGWKGLINDPHMDGSFDVEAGLQIARKLLLELVNMGLPLATEALDPNSPQYLGDLFSWSAIGARTTESQTHREMASGLSMPVGFKNGTDGSLATAINAMRAAAQPHRFVGINQAGQVALLQTQGNPDGHVILRGGKAPNYSPADVAQCEKEMEQAGLRPSLMVDCSHGNSNKDYRRQPAVAESVVAQIKDGNRSIIGLMIESNIHEGNQSSEQPRSEMKYGVSVTDACISWEMTDALLREIHQDLNGQLTARVA | 3.13 ± 0.21 | 1.05 ± 0.12 | 0.859 ± 0.25 | 3.06 ± 3 | 0.903 ± 0.017 | 2.24 ± 0.07 | 2.79 ± 0.37 | 3.84 ± 0.57 | 0.94 | 1.81 | 1.57 | 3.5 ± 0.6
8 | MQKFDTRTFQGLILTLQDYWARQGCTIVQPLDMEVGAGTSHPMTCLRELGPEPMAAAYVQPSRRPTDGRYGENPNRLQHYYQFQVVIKPSPDNIQELYLGSLKELGMDPTIHDIRFVEDNWENPTLGAWGLGWEVWLNGMEVTQFTYFQQVGGLECKPVTGEITYGLERLAMYIQGVDSVYDLVWSDGPLGKTTYGDVFHQNEVEQSTYNFEYADVDFLFTCFEQYEKEAQQLLALENPLPLPAYERILKAAHSFNLLDARKAISVTERQRYILRIRTLTKAVAEAYYASREALGFPMCNKDK | 6.13 ± 0.15 | 6.28 ± 1.2 | 6.72 ± 0.52 | 6.54 ± 0.34 | 4.88 ± 0.31 | 3.4 ± 0.69 | 6.44 ± 0.24 | – | 6.04 ± 0.12 | – | 6.78 ± 1.4 | 13.3 ± 0.41
9 | MQKLINSVQNYAWGSKTALTELYGMENPSSQPMAELWMGAHPKSSSRVQNAAGDIVSLRDVIESDKSTLLGEAVAKRFGELPFLFKVLCAAQPLSIQVHPNKHNSEIGFAKENAAGIPMDAAERNYKDPNHKPELVFALTPFLAMNAFREFSEIVSLLQPVAGAHPAIAHFLQQPDAERLSELFASLLNMQGEEKSRALAILKSALDSQQGEPWQTIRLISEFYPEDSGLFSPLLLNVVKLNPGEAMFLFAETPHAYLQGVALEVMANSDNVLRAGLTPKYIDIPELVANVKFEAKPANQLLTQPVKQGAELDFPIPVDDFAFSLHDLSDKETTISQQSAAILFCVEGDATLWKGSQQLQLKPGESAFIAANESPVTVKGHGRLARVYNKL | 4.5 ± 0.45 | 4.28 ± 0.05 | 5.01 ± 0.19 | 4.64 ± 0.25 | 4.506 ± 0.036 | 3.03 ± 0.032 | 5.48 ± 0.18 | 10.7 ± 0.47 | 4.46 ± 0.15 | 7.24 ± 0.34 | 5.71 ± 0.53 | 10.9 ± 0.41
10 | MQKNAAHTYAISSLLVLSLTGCAWIPSTPLVQGATSAQPVPGPTPVANGSIFQSAQPINYGYQPLFEDRRPRNIGDTLTIVLQENVSASKSSSANASRDGKTNFGFDTVPRYLQGLFGNARADVEASGGNTFNGKGGANASNTFSGTLTVTVDQVLVNGNLHVVGEKQIAINQGTEFIRFSGVVNPRTISGSNTVPSTQVADARIEYVGNGYINEAQNMGWLQRFFLNLSPM [P0A6S0] | 4.87 ± 0.27 | 5.09 ± 0.14 | – | – | – | 2.82 ± 0.29 | 4.64 ± 0.58 | 7.92 ± 0.56 | 4.97 | 9.12 | 5.6 | 11.5 ± 0.65
11 | MQKQAELYRGKAKTVYSTENPDLLVLEFRNDTSAGDGARIEQFDRKGMVNNKFNYFIMSKLAEAGIPTQMERLLSDTECLVKKLDMVPVECVVRNRAAGSLVKRLGIEEGIELNPPLFDLFLKNDAMHDPMVNESYCETFGWVSKENLARMKELTYKANDVLKKLFDDAGLILVDFKLEFGLYKGEVVLGDEFSPDGSRLWDKETLEKMDKDRFRQSLGGLIEAYEAVARRLGVQLD [P0A7D7] | 4.82 ± 0.52 | 5.09 ± 0.82 | 4.79 ± 0.36 | 5.32 ± 0.32 | 4.74 ± 0.15 | 3.26 ± 0.21 | 5.98 ± 0.26 | 10.8 ± 0.71 | 4.61 ± 0.12 | 8 ± 0.35 | 5.28 ± 0.41 | 11.8 ± 0.46
12 | MQKREPVIIAPDYTDDELYEWMRQKINAAQDLKWANEARAKQAENLSALEQDITNLEKAAALSIARMITYPR | – | – | – | – | – | 3.16 | – | – | – | – | – | –
13 | MQLKRVAEAKLPTPWGDFLMVGFEELATGHDHVALVYGDISGHTPVLARVHSECLTGDALFSLRCDCGFQLEAALTQIAEEGRGILLYHRQEGRNIGLLNKIRAYALQDQGYDTVEANHQLGFAADERDFTLCADMFKLLGVNEVRLLTNNPKKVEILTEAGINIVERVPLIVGRNPNNEHYLDTKAEKMGHLLNK [P0A7I7] | 4.5 ± 0.35 | 4.52 ± 0.67 | 4.48 ± 0.35 | 4.54 ± 0.19 | 4.54 ± 0.23 | 2.92 ± 0.095 | 5.1 ± 0.3 | 8.93 ± 0.54 | 4.27 ± 0.17 | 6.85 ± 0.2 | 6.08 ± 0.73 | 10.3 ± 0.8
14 | MQLNITGNNVEITEALREFVTAKFAKLEQYFDRINQVYVVLKVEKVTHTSDATLHVNGGEIHASAEGQDMYAAIDGLIDKLARQLTKHKDKLKQH [P0AFX0] | 4.19 ± 0.41 | 3.97 ± 0.51 | 3.49 ± 0.22 | 4.08 ± 0.13 | 3.67 ± 0.043 | 2.51 ± 0.14 | 4.75 ± 0.17 | 8.14 ± 0.53 | 3.39 ± 0.5 | 7.37 ± 0.34 | 4.21 ± 0.12 | 7.16 ± 0.65
15 | MQNITQSWFVQGMIKATTDAWLKGWDERNGGNLTLRLDDADIAPYHDNFHQQPRYIPLSQPMPLLANTPFIVTGSGKFFRNVQLDPAANLGIVKVDSDGAGYHILWGLTNEAVPTSELPAHFLSHCERIKATNGKDRVIMHCHATNLIALTYVLENDTAVFTRQLWEGSTECLVVFPDGVGILPWMVPGTDEIGQATAQEMQKHSLVLWPFHGVFGSGPTLDETFGLIDTAEKSAQVLVKVYSMGGMKQTISREELIALGKRFGVTPLASALAL | 3.93 | 2.62 | 2.77 ± 0.41 | – | 2.45 | – | 5.1 | > 16 | – | 3.97 | 4.9 | 10.1 ± 0.11
16 | MQNKLASGARLGRQALLFPLCLVLYEFSTYIGNDMIQPGMLAVVEQYQAGIDWVPTSMTAYLAGGMFLQWLLGPLSDRIGRRPVMLAGVVWFIVTCLAILLAQNIEQFTLLRFLQGISLCFIGAVGYAAIQESFEEAVCIKITALMANVALIAPLLGPLVGAAWIHVLPWEGMFVLFAALAAISFFGLQRAMPETATRIGEKLSLKELGRDYKLVLKNGRFVAGALALGFVSLPLLAWIAQSPIIIITGEQLSSYEYGLLQVPIFGALIAGNLLLARLTSRRTVRSLIIMGGWPIMIGLLVAAAATVISSHAYLWMTAGLSIYAFGIGLANAGLVRLTLFASDMSKGTVSAAMGMLQMLIFTVGIEISKHAWLNGGNGLFNLFNLVNGILWLSLMVIFLKDKQMGNSHEG [P0AEY8] | – | – | – | – | – | 3.11 | – | – | – | – | 5.65 ± 0.22 | 11 ± 2.6
